Measured values taken from patent US20130095480A1 (BOARD OF TRUSTEES OF THE UNIVERSITY OF ARKANSAS, published 2013).

Target: T1, Chondroitin Sulfate Proteoglycan 4 (CSPG4) (human, UniProt Q6UVK1 30-2322, carries chondroitin sulfate (CS) glycosaminoglycan chains)
T1 construct: whole, on cells; also called High Molecular Weight Melanoma Associated Antigen; Melanoma Chondroitin Sulfate Proteoglycan
Experiment: flow cytometry, recombinant P-selectin/Fc on M14-CSPG4 versus mock-transfected M14 cells
Protocol: Briefly, cells were incubated with mAb or P-selectin/Fc, washed and stained with FITC-conjugated anti-mouse IgM or anti-human IgG prior to binding detection by flow cytometry. R-phycoerythrin-conjugated polyclonal goat anti-mouse F(ab′)₂ was used as secondary for detection of anti-CSPG4 binding.

T1 sequence (Q6UVK1 30-2322): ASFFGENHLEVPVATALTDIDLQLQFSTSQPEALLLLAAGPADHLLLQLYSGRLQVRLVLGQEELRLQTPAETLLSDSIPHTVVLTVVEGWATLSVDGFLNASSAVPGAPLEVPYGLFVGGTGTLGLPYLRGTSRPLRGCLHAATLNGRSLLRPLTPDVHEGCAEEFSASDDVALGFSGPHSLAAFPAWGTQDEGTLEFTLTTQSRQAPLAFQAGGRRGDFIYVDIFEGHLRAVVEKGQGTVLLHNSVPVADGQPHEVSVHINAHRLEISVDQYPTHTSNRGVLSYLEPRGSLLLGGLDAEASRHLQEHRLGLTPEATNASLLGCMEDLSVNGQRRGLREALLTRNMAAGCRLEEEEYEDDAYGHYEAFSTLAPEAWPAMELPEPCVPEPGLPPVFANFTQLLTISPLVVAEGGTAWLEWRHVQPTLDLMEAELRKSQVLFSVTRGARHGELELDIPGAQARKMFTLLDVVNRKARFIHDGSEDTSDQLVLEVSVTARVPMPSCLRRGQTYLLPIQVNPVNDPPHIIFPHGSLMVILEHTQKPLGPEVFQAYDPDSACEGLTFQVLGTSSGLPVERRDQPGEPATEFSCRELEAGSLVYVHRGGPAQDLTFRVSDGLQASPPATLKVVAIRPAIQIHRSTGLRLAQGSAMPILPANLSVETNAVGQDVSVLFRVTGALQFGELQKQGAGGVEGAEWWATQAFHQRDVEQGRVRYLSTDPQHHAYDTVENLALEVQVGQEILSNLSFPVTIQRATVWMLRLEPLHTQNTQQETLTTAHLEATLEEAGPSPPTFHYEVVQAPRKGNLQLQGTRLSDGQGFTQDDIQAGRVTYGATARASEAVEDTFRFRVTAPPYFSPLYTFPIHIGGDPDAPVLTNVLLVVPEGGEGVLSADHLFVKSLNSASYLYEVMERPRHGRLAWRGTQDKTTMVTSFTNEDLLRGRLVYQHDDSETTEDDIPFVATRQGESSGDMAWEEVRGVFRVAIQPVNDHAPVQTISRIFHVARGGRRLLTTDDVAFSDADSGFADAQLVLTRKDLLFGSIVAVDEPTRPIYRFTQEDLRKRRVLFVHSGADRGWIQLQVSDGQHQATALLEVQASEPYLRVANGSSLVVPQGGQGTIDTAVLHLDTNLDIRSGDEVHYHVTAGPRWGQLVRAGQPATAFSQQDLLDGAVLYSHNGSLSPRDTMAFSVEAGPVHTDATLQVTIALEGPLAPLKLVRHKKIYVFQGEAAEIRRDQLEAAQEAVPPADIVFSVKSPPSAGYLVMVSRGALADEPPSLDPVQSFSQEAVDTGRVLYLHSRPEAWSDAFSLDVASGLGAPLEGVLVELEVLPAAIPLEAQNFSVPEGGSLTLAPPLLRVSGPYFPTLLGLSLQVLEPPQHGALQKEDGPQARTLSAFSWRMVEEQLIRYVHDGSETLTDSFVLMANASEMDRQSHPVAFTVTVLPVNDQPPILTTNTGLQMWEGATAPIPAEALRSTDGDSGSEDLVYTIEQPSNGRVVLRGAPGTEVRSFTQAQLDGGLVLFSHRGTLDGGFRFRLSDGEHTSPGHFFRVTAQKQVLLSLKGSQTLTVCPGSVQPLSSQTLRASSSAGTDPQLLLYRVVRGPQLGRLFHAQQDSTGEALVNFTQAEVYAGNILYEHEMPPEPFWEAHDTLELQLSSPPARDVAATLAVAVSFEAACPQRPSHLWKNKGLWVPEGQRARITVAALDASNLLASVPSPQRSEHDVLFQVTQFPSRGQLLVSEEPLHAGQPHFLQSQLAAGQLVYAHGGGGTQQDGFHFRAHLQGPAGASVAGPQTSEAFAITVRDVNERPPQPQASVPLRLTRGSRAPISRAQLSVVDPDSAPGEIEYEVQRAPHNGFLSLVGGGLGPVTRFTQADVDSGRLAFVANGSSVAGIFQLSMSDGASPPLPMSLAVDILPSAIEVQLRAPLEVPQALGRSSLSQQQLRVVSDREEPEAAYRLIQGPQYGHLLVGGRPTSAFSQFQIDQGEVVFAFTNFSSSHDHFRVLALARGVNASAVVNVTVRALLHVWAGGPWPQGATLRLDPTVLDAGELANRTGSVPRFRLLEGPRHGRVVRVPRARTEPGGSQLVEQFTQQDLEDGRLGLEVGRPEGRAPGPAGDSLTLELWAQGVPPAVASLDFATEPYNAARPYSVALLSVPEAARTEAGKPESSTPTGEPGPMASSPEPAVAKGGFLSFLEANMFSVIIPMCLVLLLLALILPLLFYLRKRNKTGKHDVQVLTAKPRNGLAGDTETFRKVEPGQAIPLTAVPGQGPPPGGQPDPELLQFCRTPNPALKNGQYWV

binding result: binds
B1: recombinant human P-selectin/Fc (human IgG) (Fc fusion, UniProt P16109 42-771, looked up)
chain: WTYHYSTKAYSWNISRKYCQNRYTDLVAIQNKNEIDYLNKVLPYYSSYYWIGIRKNNKTWTWVGTKKALTNEAENWADNEPNNKRNNEDCVEIYIKSPSAPGKWNDEHCLKKKHALCYTASCQDMSCSKQGECLETIGNYTCSCYPGFYGPECEYVRECGELELPQHVLMNCSHPLGNFSFNSQCSFHCTDGYQVNGPSKLECLASGIWTNKPPQCLAAQCPPLKIPERGNMTCLHSAKAFQHQSSCSFSCEEGFALVGPEVVQCTASGVWTAPAPVCKAVQCQHLEAPSEGTMDCVHPLTAFAYGSSCKFECQPGYRVRGLDMLRCIDSGHWSAPLPTCEAISCEPLESPVHGSMDCSPSLRAFQYDTNCSFRCAEGFMLRGADIVRCDNLGQWTAPAPVCQALQCQDLPVPNEARVNCSHPFGAFRYQSVCSFTCNEGLLLVGASVLQCLATGNWNSVPPECQAIPCTPLLSPQNGTMTCVQPLGSSSYKSTCQFICDEGYSLSGPERLDCTRSGRWTDSPPMCEAIKCPELFAPEQGSLDCSDTRGEFNVGSTCHFSCDNGFKLEGPNNVECTTSGRWSATPPTCKGIASLPTPGVQCPALTTPGQGTMYCRHHPGTFGFNTTCYFGCNAGFTLIGDSTLSCRPSGQWTAVTPACRAVKCSELHVNKPIAMNCSNLWGNFSYGSICSFHCLEGQLLNGSAQTACQENGHWSTTVPTCQAGPLTIQEA
notes: Bought reagent (R&D Systems); also called recombinant P-selectin; not shown: Fc of human IgG
